Experimental data reported in publication PMC13379313, “Clocked stepping of an artificial protein walker along a DNA track”.

Tests used:
MetJ = target: T1, MetJ (UniProt P0A8U6 2-105, Q45K); experiment: SPR; SAM; SPR: 1 mM SAM, 0.4 mM CoCl2 or 0.5 mM Trp, 100 ul/min, streptavidin CM5 chip; running buffer, pH and temperature not in material (DNA annealed in 25 mM HEPES pH 7.4, 200 mM KCl, 5 mM MgCl2); details: protein: recombinant; tags: 8xHis, TEV-cleaved; chain copies: 2; label: 3' biotin on anchor strand S4 (SPR); 5' overhang 14 nt of strand 1, annealed to biotin anchor S4 in SPR
T1 sequence: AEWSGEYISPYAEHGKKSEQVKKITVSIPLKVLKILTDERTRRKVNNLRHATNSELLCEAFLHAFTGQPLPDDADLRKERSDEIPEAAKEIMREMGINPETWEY

TrpR = TrpR (UniProt P0A881 2-108); experiment: SPR; Trp; SPR: 1 mM SAM, 0.4 mM CoCl2 or 0.5 mM Trp, 100 ul/min, streptavidin CM5 chip; running buffer, pH and temperature not in material (DNA annealed in 25 mM HEPES pH)

B1: metJ single site (NR139 top/bottom) (dsDNA)
DNA 1: CCACGCCCTAAGGTATGCTAGTTTGAGACGTCTCAAAACAGGA
DNA 2: TCCTGTTTTGAGACGTCTCAAACTAGCAT
- Kd (MetJ): 4 ± 0.4 nM

B2: trpR single site (NR206/NR207) (dsDNA)
DNA 1: CCACGCCCTAAGGTGAGCATAGTGGTACTCGCTAGCGAGTACCTCTGACTTC
DNA 2: GAAGTCAGAGGTACTCGCTAGCGAGTACCACTATGCTC
- Kd (TrpR): 48 nM
